Laboratory results from patent US20190218553.

Target: von Willebrand factor (VWF) (Homo sapiens) (UniProt P04275)
Test: filter
Details: mAmCmGmAmAmCmUmGfCfCfCmUmC(6GLY)mGmAfCrGfCmAmCmAmGmAmCmGfUidT (6GLY = hexaethylene glycol linker); Bmax 60%; 2 mM CaCl2, 37 C

## ACGAACUGCCCUCGACGCACAGACGU [DTRI-009]
  Kd: 11 nM
